Experimental data from publication PMC8863222.

Molecular target: recombinant equine Keap1, GST-tagged, biotinylated (equine) (UniProt F6VZG9)
Assay: BLI; biotinylated Keap1 (65 μg/ml) loaded on streptavidin-coated biosensors; various concentrations of Rev or Nrf2 in PBST (PBS, 0.1 mg/ml BSA, 0.002% Tween 20, pH 7.2); room temperature; Octet Red

Substance | Kd [nM]
recombinant EIAV Rev, MBP-tagged (natural protein) | 494
recombinant equine Nrf2, His-tagged (natural protein) | 400
